Kd, koff and kon data for four molecules are collected here from patent US20230070752A1 (KOREA ADVANCED INSTITUTE OF SCIENCE AND TECHNOLOGY, published 2023).

One may read the Kd as the constant that tells how readily two partners part at equilibrium. A low value points to tighter binding. As a reminder, the koff is a measure of how fast the partners let go of each other. By kon is commonly meant the rate constant with which the complex forms. Read a high kon as faster complex formation.

Where a chain is given by its changes, count along the chain named. Numbers in names are those of the source.

Assay [1] concerns the target T1, IFNλR1 (UniProt Q8IU57 21-228, limits assumed).
T1 construct: Soluble protein used at 500, 1000 and 2000 nM in BLI; also called IFNLR1; interferon lambda receptor 1
T1 sequence (looked up): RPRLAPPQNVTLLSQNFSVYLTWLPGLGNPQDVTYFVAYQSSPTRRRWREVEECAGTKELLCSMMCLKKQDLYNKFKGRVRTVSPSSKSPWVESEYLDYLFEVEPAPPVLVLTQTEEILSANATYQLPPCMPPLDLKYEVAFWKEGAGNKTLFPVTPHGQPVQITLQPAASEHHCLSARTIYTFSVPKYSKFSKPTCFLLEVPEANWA
The assay can be described thus: BLI (BLItz), biotinylated IFNλ4 on streptavidin sensor, IFNλR1 in solution at 500-2000 nM, 1:1 global fit. The method, then:
(§1) Sensorgrams were obtained from BLItz instrument. Data points are shown in grey and the corresponding fits are shown in red (IFNλR1) and blue (IL10Rβ). KD values were calculated from 1:1 global fitting.
(§2) The binding kinetics of the IFNλ4 variant to IFNλR1 and IL10Rβ were measured using biolayer light interferometry (BLI) in a BLItz system (ForteBio, Pall Life Sciences). The mixture was stirred in a washing buffer (200 mM NaCl, 20 mM Tris-HCl pH 8, 5% glycerol, 0.01% Tween-20) at 2,200 rpm. Analysis was performed at room temperature. 0.25 mg/ml of biotinylated IFNλ4 was loaded on the surface of the streptavidin biosensor (ForteBio) for 1 minute, and then the loaded biosensor was washed with a washing buffer (200 mM NaCl, 20 mM Tris-HCl pH 8, 5% glycerol, 0.01% Tween-20) for 2 minutes to remove unbound protein. The biosensor tip was immersed in drops containing the indicated concentrations of IFNλR1 and IL10Rβ (500, 1000 and 2000 nM). Associations (on rate, kon) were measured at intervals of 2 minutes. Subsequently, the sensor was immersed in the washing buffer for 2 minutes to measure dissociations (off-rate koff). KD measured in nanomoles was calculated as a ratio of […]. The resulting data was analyzed by fitting to a 1:1 ligand model using the entire global fitting function.
(§3) To investigate whether the mutation and the additional glycan on IFNλ4 variants affect their binding to their receptors, IL10Rβ and IFNλR1, in-vitro binding affinity of the IFNλ4 variants to IL10Rβ and IFNλR1 was evaluated using biolayer light interferometry (BLI) and then compared with that of wild-type IFNλ4 (eIFNλ4) purified from E. coli. Similar to eIFNλ4, the three IFNλ4 variants appropriately bound to the receptor, and the binding affinity for IFNλR1 was higher than the binding affinity for IL10Rβ (FIG. 4).

For assay [2], the target named is T1, IFNλR1. The assay is described as follows: BLI (BLItz), biotinylated eIFNλ4 immobilized on streptavidin biosensor, IFNλR1 as analyte (500, 1000, 2000 nM), 1:1 global fit; column head k dis. The method, then:
as §1, §2

The target in assay [3] is T2, IL10Rβ (UniProt Q08334 20-220, limits assumed).
T2 construct: Soluble protein used at 500, 1000 and 2000 nM in BLI; also called IL10RB; interleukin-10 receptor beta
T2 sequence (looked up): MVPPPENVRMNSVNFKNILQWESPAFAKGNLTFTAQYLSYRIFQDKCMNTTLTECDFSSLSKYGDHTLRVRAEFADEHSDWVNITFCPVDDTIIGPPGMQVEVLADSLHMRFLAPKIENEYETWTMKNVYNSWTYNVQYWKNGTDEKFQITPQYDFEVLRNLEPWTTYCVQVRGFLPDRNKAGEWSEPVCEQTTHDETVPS
The assay can be described thus: BLI (BLItz), biotinylated eIFNλ4 immobilized on streptavidin biosensor, IL10Rβ as analyte (500, 1000, 2000 nM), 1:1 global fit. The protocol: as §1, §2

The target of assay [4] is T1, IFNλR1. The assay is described as follows: BLI (BLItz), biotinylated eIFNλ4 immobilized on streptavidin biosensor, IFNλR1 as analyte (500, 1000, 2000 nM), 1:1 global fit. The method, then:
as §1, §2

Assay [5] concerns the target T2, IL10Rβ. The assay is described as follows: BLI (BLItz), biotinylated eIFNλ4 immobilized on streptavidin biosensor, IL10Rβ as analyte (500, 1000, 2000 nM), 1:1 global fit; column head k dis. The protocol:
as §1, §2

In assay [6] the target is T2, IL10Rβ. The assay can be described thus: BLI (BLItz), biotinylated IFNλ4 on streptavidin sensor, IL10Rβ in solution at 500-2000 nM, 1:1 global fit. The method, then: as §1, §2, §3
Assay [7] has as its target T1, IFNλR1. The assay can be described thus: BLI (BLItz), biotinylated IFNλ4 variant immobilized on streptavidin biosensor, IFNλR1 as analyte (500, 1000, 2000 nM), 1:1 global fit. The protocol: as §1, §2
Assay [8] addresses T2, IL10Rβ. The assay can be described thus: BLI (BLItz), biotinylated IFNλ4 variant immobilized on streptavidin biosensor, IL10Rβ as analyte (500, 1000, 2000 nM), 1:1 global fit; column head k dis. The protocol:
as §1, §2

In assay [9] the target is T2, IL10Rβ. The assay can be described thus: BLI (BLItz), biotinylated IFNλ4 variant immobilized on streptavidin biosensor, IL10Rβ as analyte (500, 1000, 2000 nM), 1:1 global fit. The method, then: as §1, §2
Assay [10] addresses T1, IFNλR1. The assay can be described thus: BLI (BLItz), biotinylated IFNλ4 variant immobilized on streptavidin biosensor, IFNλR1 as analyte (500, 1000, 2000 nM), 1:1 global fit; column head k dis. The protocol:
as §1, §2

B1: eIFNλ4 (wild-type IFNλ4 produced in E. coli, R&D Systems 9165-IL) (ligand)
chain: MAPRRCLLSHYRSLEPRTLAAAKALRDRYEEEALSWGQRNCSFRPRRDPPRPSSCARLRHVARGIADAQAVLSGLHRSELLPGAGPILELLAAAGRDVAACLELARPGSSRKVPGAQKRRHKPRRADSPRCRKASVVFNLLRLLTWELRLAAHSGPCL
modifications: not glycosylated (E. coli); biotinylated for BLI
notes: Bought as protein and used as the wild-type control; also called eIFNL4; control wild-type IFNλ4
Take B1: the Kd is 19 nM in the assay with IFNλR1 [1] and 71 nM with IL10Rβ [6]. The koff in the assay with IFNλR1 [2] was found to be 0.000397 s⁻¹; with IL10Rβ [5] it was 0.00203 s⁻¹. Further, the kon worked out at 28800 M⁻¹ s⁻¹ with IL10Rβ [3] and 21300 M⁻¹ s⁻¹ in the assay with IFNλR1 [4].

B2: M1 (L28N) IFNλ4 variant (ligand)
chain: B1 chain with M1A, L7N
modifications: N-glycan at Asn61 (L28N not glycosylated); biotinylated for BLI
notes: Secreted from Expi293F cells as a C-terminal Protein A fusion; Protein A was removed by thrombin at an LVPRGS site; Monomer by SDS-PAGE; also called L28N (M1)
B2: the Kd amounted to 14 nM with IFNλR1 [1] and 49 nM with IL10Rβ [6]. Further, the on-rate constant (kon) in the assay with IFNλR1 [7] was 50200 M⁻¹ s⁻¹; with IL10Rβ [9] it was 21300 M⁻¹ s⁻¹. Besides, the koff in the assay with IL10Rβ [8] was found to be 0.00104 s⁻¹; in the assay with IFNλR1 [10] it was 0.000686 s⁻¹.

B3: M7 (L28N+P73N) IFNλ4 variant (ligand)
chain: B1 chain with M1A, L7N, P52N
modifications: N-glycans at Asn61 and at P73N (Asn73); L28N not glycosylated; biotinylated for BLI
notes: Secreted from Expi293F cells as a C-terminal Protein A fusion; Protein A was removed by thrombin at an LVPRGS site; Monomer by SDS-PAGE; also called double mutant
Turning to B3, the figures for the Kd with IFNλR1 [1] and with IL10Rβ [6] were 17 nM and 49 nM, respectively. The values for the kon with IFNλR1 [7] and in the assay with IL10Rβ [9] were 58300 M⁻¹ s⁻¹ and 26200 M⁻¹ s⁻¹, respectively. Besides, the koff with IL10Rβ [8] worked out at 0.00129 s⁻¹; with IFNλR1 [10], 0.000967 s⁻¹.

B4: M3 (P73N) IFNλ4 variant (ligand)
chain: B1 chain with M1A, P52N
modifications: N-glycans at Asn61 and at P73N (Asn73); biotinylated for BLI
notes: Secreted from Expi293F cells as a C-terminal Protein A fusion; Protein A was removed by thrombin at an LVPRGS site; Monomer by SDS-PAGE; also called P73N (M3)
Regarding B4, the equilibrium dissociation constant (Kd) amounted to 22 nM with IFNλR1 [1] and 51 nM with IL10Rβ [6]. For the same molecule, the kon with IFNλR1 [7] was found to be 29200 M⁻¹ s⁻¹; in the assay with IL10Rβ [9], 29100 M⁻¹ s⁻¹. Further, the koff is 0.00148 s⁻¹ with IL10Rβ [8] and 0.000647 s⁻¹ with IFNλR1 [10].
